Values of other authors, collected in publication PMC10814857, “Functional Classification and Interaction Selectivity Landscape of the Human SH3 Domain Superfamily” (Cells, 2024).

Legend:
PACSIN1 SH3 domain = molecular target: PACSIN1 SH3 domain; set-up: method as in ref [60] (a number printed in a supplementary file, which may have a reference list of its own: not looked up in the article's list); conditions: PACSIN1, ITC, Table S4; ref [60]
[1] = molecular target: bPIX (ARHGEF7) SH3 domain; set-up: method as in 3 sources, one per row (each row's own in cited_ref): ref [33] (a number printed in a supplementary file, which may have a reference list of its own: not looked up in the article's list) ||| ref [60] (a number printed in a supplementary file, which may have a reference list of its own: not looked up in the article's list) ||| ref [34] (a number printed in a supplementary file, which may have a reference list of its own: not looked up in the article's list); conditions: ITC, Table S4, ref [60]
[2] = molecular target: SH3GL2 (Endophilin-A1) SH3 domain; conditions: ITC, Table S4, ref [60]
Method: page 6: […] […] […] PAK2 […] PXXXPR PXXXPR 1.05 ITC [34] TRSVI ITSN1-2 Synthetic […] Exceptional [W/F][R/W]xSx[A/ 53 ITC [29] peptide G][F/Y][L/V]xGP[ W/L] NCK1-2 N-WASP GP[…] … 147 HSQC [64] VA[…] 199 PLCG1 SOS1 AAPV[…] … 0.20mM SPR [75] AADS[…] 0.40mM AAES[…] 0.70mM AAIA[…] 0.28mM BAIAP2L1 EspFUR45 IPP[…] … 0.5 nM ITC [76] (IRTKS) 9 SORBS2- Synthetic […] Exceptional XRXGXAYLXYVX 38 ITC [29] 1 peptide Synthetic RL[…](L/P) ...

Kd (PACSIN1 SH3 domain): 4330 nM
Kd [1]: 1440 nM
Kd [2]: 457 nM
B1: PEDAGAGENRRVSGNNSPSLSNGGFKPSRPPRPSRPPPPTPRRPASVNGSPSATSESDGSSTG (peptide)
chain: PEDAGAGENRRVSGNNSPSLSNGGFKPSRPPRPSRPPPPTPRRPASVNGSPSATSESDGSSTG
notes: published Itch proline-rich peptide
